{"source": "a protein production outcome set (Wang et al. 2014)", "test": "label from the status in PepcDB records"}
{"sequence": "TFYSVRMRASMNGSHEDGGKHISGGERLIPFHEMKHTVNALLEKGLSHSRGKPDFMQIQFEEVHESIKTIQPLPVHTNEVSCPEEGQKLARLLLEKEGVSRDVIEKAYEQIPEWSDVRGAVLFDIHTGKRMDQTKEKGVRVSRMDWPDANFEKWALHSHVPAHSRIKEALALASKVSRHPAVVAELCWSDDPDYITGYVAGKKMGYQRITAMKEYGTEEGCRVFFIDGSNDVNTYIHDLEKQPILIE", "values": [{"measurement": "protein production", "value": "not failed"}]}
{"sequence": "MDDDPHFDQNVQTVIAKTEAYITESVKAGGTGRALRDAHAKGYGLVRGEVEILDGLPPEYAQGIYATPGTHDALIRFSNGSPHAGADARLGAATGLALKIFDIPGPTLLEDEPDTGTFDYANINGPIFFCNTVEHYLFIQELFLNAPAYFSQGRPGAHRFFTDFVTGKGTLDQDDWAWDEFLAFLRLSKTPPANLLLSSYWTMGAVRHGDYIAKVRITPDPSFAAAVVRRDIDPTSAQEVFRPALEAELQERPYAFDIQVQLCTDLERMPVEDTTVEWPEQLSPSVTVAKLRLPRQDISGPENLEKMDSLSFTPWRVTAEHAPLGNIMRSRKEVYRQSSMELEHHHHHH", "values": [{"measurement": "protein production", "value": "failed"}]}
{"sequence": "MYVFTIGYFTIPANLFSLITSRYSAERKNVGGIVIINLIAGISSSLVFALLVPYYISLTKLDVPIYFYSAISLIILTYLLTVTNSIAQGRTPKIVGISALIFQVLRLVSGIIFMFIFNLSILAVILAYSIGYLAQVLFNLFFIRANLKIDFKVAFSAVRKAVVYIANYIQYILEASIVWITLGIVNSDLVVAYFESAIIVSNIQIGHKQYIQGLWLS", "values": [{"measurement": "protein production", "value": "failed"}]}
{"sequence": "IEGLFIFDRNQKCVYANHIALNLFGYTLEEVHSKSILDFIALGFRNKVKRFSQNRDQPPYEVLGIKNDGSLFPIMIRGKAIELG", "values": [{"measurement": "protein production", "value": "failed"}]}
{"sequence": "QQNIVLSIQDRLQQLPKSERKIAEYILKNTETVISMNAQELAKQAGSSPAAIIRFCHSMDVNGFTELKLLLSANLGQMKQQMYTEVTKGESTADIKQKLQARFVHVVERSGQTLE", "values": [{"measurement": "protein production", "value": "not failed"}]}
{"sequence": "TSSISPAKMANGTAGTKVALRKTKQAAEKISADKISKEALLECADLLSSALTEPVPNSQLVDTGHQLLDYCSGYVDCIPQTRNKFAFREA", "values": [{"measurement": "protein production", "value": "failed"}]}
{"sequence": "MGDRVNLEGIVIDIEQTNDQLSFNVTDENESVPVVYDGPMPETMSVGRTVVAKGYYNGSVVEAESLSIRAHEGLEHHHHHH", "values": [{"measurement": "protein production", "value": "not failed"}]}
{"sequence": "MTSTFLLEIGTEELPADFARQALDQLQDRVGRDLLDSRLDHKSVQVLGTPRRLVVRVHGLADRQPDLEEDQKGPPIAQAFKDGVPGPAAIGFSKRCGVDPSQLEVRNTPKGECVFASVRTEGQNSVDLLQELIPAWINGLQGRRFMRWGTGSQRFSRPIRWLLALKGVDLIPVEIPGADPPVRSDRFSRGHRLHGDQPLPIDTAEDYDDTLAAAGVIVDRQQRAALIRSQLDASADQLNGLPDCPESLFEELVDLVESPRLLQGSIAERFLSLPPEVIITVMQAHQRYVPLKVPEVTPDPLQLEATVVLQRDFLLVGNGLEAADALITRGNERVLAARLADAEFFLSVDRRQPSSARREALDRVTFAEGLGSLLDRCQRIERTARQLVDQLNLDAHQGEAAIRAAHFCKHDLVSQMVGEFPELQGLMGGKYLLEEGEPTEVALAVVEHYLPRGAGDQLPSSDAGAVVALAERLELLLSIFAKGERPSGSSDPYALRRAGNGLLQIVWDRGWRLDLSRFLGSAVEDWAALFPEFAIDSSALHQDLCQLLRQRIVSQLEDEGFVPDLVQAVSAESVAT", "values": [{"measurement": "protein production", "value": "failed"}]}
{"sequence": "MTSIWGQIQHILQNTLAPGLFKVWISPLAGEVDGSTLRVEAPNEFVAGWVRDRLFEDIRTAACGVIGDTVEVVVTAGAPAAAAPRPVLAPRPAVVEVVPTAAPVPSVVPAVEARPSGHAPRRLSAETQQAQEQLGLPLDWAPVPQSRTNWRFSFDDFIVGPNNELACAAARGMCRDGLMTDTLFLSSGPGLGKTHLLHAVGRSLCESSNRSNPNVAYLTAEEFASRLIAALKARDVERFKARYRDVDVLLLEDVHFLQGKEKMQDEVLATVKALQSRGSRIVFSSSFAARDLKNVDNQLVSRFCSGFLAGIERPDFDTRRRILREKARIYQVMLPDNVTDLLAERISTDVRQIESCLHNLILKAKLLNRQISLEMAFEIIGNYAQAETQLDFEGIVRMVCEGFGLSPEQLNSRSRKREYVVARNAAYLLARKHTDLSLKEIGDRFNRRHSTVLKGITALEREMNRETPLGRQVANTISLLERNGRITHARH", "values": [{"measurement": "protein production", "value": "failed"}]}
{"sequence": "MIIRPIIKNDDQAVAQLIRQSLRAYDLDKPDTAYSDPHLDHLTSYYEKIEKSGFFVIEERDEIIGCGGFGPLKNLIAEMQKVYIAERFRGKGLATDLVKMIEVEARKIGYRQLYLETASTLSRATAVYKHMGYCALSQPIANDQGHTAMDIWMIKDL", "values": [{"measurement": "protein production", "value": "failed"}]}
{"sequence": "MNIMLFHSTYGLRPAVRAAADRLRAAGHEVWTPDLLEGRTFETVEEGMAFCDGIGKDELLKRAVLAAAPYSERGLVYAGFSLGASIAQTLALGDEKARGLLLLHGTSDIAESASVDELPVQLHVAEPDAFETDDWLGAWYLQLRRAGADVEVYRYAGAGHLYTDPDLPDYDAEAAEATWKVALGFLDSL", "values": [{"measurement": "protein production", "value": "not failed"}]}
{"sequence": "MGLPNLSRFREKCCYCYRSIGDGISVCDCGFSFCEKHRGIHLGKSGCRIVFDIKEVGSDLGIEIKNAMLGEEEVEELRRRMEILIKPGDEDERVLSRDEEVRCVHGCPEGPSSIEMGNIGGLKCNLCDVKTRLWVCFSCGYVGCGRMQYGAEGNGHAKSHYEETQHNVFVLVPSLLKEDCEIFCYLCDSNIRSRYNSAENSVTIDFGGADGKTEERSVRKVMSCRGIAEPEFLEKKRAPESKGESVPSPYVGIINSGNTCYISSVIHMVGYAVSKEEFDLEQHFEICYMKNPLECFFCQLMRVLSKMKETKDNEGVNRISILDLIMLIWRDMPMFGKFAQQDAHEFLLFLLEKIREGERSYLIPPITSLFEFEVGRRVSCSGCMDDSTSYESMLMICTFLKGNIRKSVEMFFLPDEWSCECGGKKKVSRFITTLPKYLIIQVGRYSYNNYKVEKIKDKIEMRSIKLGSFMSKDEADRSLVRKLVDSGYPEEDAAKALGIFWNDESKARSLLENHAMMDMRTDSKYRVVGCINHSGDNIKAGHYTWWVYDNGKCFKIDDTTVLNSNVEVLEDGYIFLFK", "values": [{"measurement": "protein production", "value": "failed"}]}
{"sequence": "MVDHGMFYSSRMSTLSSNGRGDAYTCKKALHLTLNKPNVVKACSDLKKNEHQISRDFAAETKKKTEFLVLKKNNDERSKTGEVTREKKQSALPLKLSKTPRSGTGEIKQTLKKRGLSKSVPETSRLIKLKKQPPVKVSDKPKSCPVLTKNDTDTLELFEIAKKSADFANAKGILASEVETSMCVDTLTLLLEFPISARDMETRKLMVRLEHLTKHKNRKICNSASKLLQCWRESIREQQLRESRKTQG", "values": [{"measurement": "protein production", "value": "failed"}]}
{"sequence": "QGYQVTKLYVMDRDGTNARLLTEGFDRDVQNPTFTADGEHIVFRYVDEGSTKIGRVALDGGRRVVAEHVGGTSIGRPYTSGSFSLASNGRVAFTHATPQRPADVAVAQAGREAQVLTALNDDLFGQVDLGSVEQITYESSHDGRTIEGWIVTPPGFDASQEYPLVLEIHGGPFASYGPYFSAEVQLYAAAGYVVLYTNPRGSTSYGQDFGNAIHHDYPGHDYDDLMSGVDAVLERGYVDADRLYVTGGSGGGVLTSWIVGHTDRFRAAVAAKPVINWYSWALTADMYPYGVKYWFPGLPWNHEEHYMDRSPLSYVDNVTTPTMLLTGANDYRTPMSESEQFYQALKLREVETALVRVPGASHSIAARPSHLAAKAAHVLEWFRRHGGPTPEQ", "values": [{"measurement": "protein production", "value": "failed"}]}
{"sequence": "MQVTADAVPKLNRAAVAAGSADIDAVSGATYTSAGYVKSLQSALDKAAAAAGPAAQESSGADSGSGGGGRSEGDAGQGTQVLTGDAAQTQYGPVQVRVTVSGGRITDVEALQAPKGGRSDQVTADAVPRLNRAAVAAGTADIDAVSGATYTSAGYTQSLQSALDRAGGLEHHHHHH", "values": [{"measurement": "protein production", "value": "failed"}]}
{"sequence": "MLNDKMYHGKGLRKGDLRLYHELYNLQVMKWPVNPLDVIIEKIKRREGNGVIADIGCGEARIAREFENVISLDLHPVGKDVIPCDMRRRIPLDDGSVDVAVCCLSMMVEDIAVPTKEINRILRNGGHWYIAEVRSRIPSVGLLERKFESLGFDVEHVDVSNAQFVLFVLQK", "values": [{"measurement": "protein production", "value": "failed"}]}
